Results on 2 proteins are retold here after PMC8995368 (Structure (London, England : 1993), 2022).

This series deals with the molecule itself. In words: crystal structure.

As a reminder, the stoichiometry N is the number of molecules, sites or subunits per partner or assembly.

B1: Myxococcus xanthus encapsulin cargo protein EncB (ferritin-like protein) (natural protein, M. xanthus, UniProt Q1D6H3 1-158, looked up)
chain: MAGPPDSDLDDVARIRLVLARELETINEYEAYARASSNPEVRAFFQHLAAEEKEHVSEAVHMLRMLDSGQNDHFAKPFVPGHFQAAEAPAPATVHVPTPDGPAFSVNGRNGRLPSEPPTSLPPQRLLYGLPAPPPAVESHPLTVGSLRRGGGGSGSGR
As for B1, the “stoichiometry N” value worked out at 10.

B2: Myxococcus xanthus encapsulin cargo protein EncC (ferritin-like protein) (natural protein, M. xanthus)
chain: MPQTNPFHSLVPRKMTDTELARSIRLNIEAELDAINLYAAHIDATDNEDAKAILQHVMDEEREHAALFWELIARLDPEQAAHAKEAVEKYRLITSGASHEAVEAVGKEGAAPSPADVTPEKRLTVGSLRR
Turning to B2, the “stoichiometry N” value is 10.
